What all share (assay type): biochemical
Test [1] deals with T1, ATM kinase (Homo sapiens, UniProt Q13315).
T1 construct: The full-length cDNA encoding NH2-terminal, FLAG-tagged wild-type ATM; made in house; host or cells: 293T cells, transient transfection with pcDNA-FLAG-ATMwt, anti-FLAG M2 immunoprecipitate on beads
Put plainly: In vitro kinase assay, ATM with GST-peptide / GST-fusion substrates.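 For all read-outs here: immunoprecipitated ATM incubated with [γ-32P]ATP at 30 °C for 20 min, substrates resolved by SDS-PAGE and radiolabel incorporation quantified by PhosphorImager.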 To be noted: for phosphorylation by ATM in vitro (in words): larger GST-fusion fragments or full-length proteins as substrates; for Relative Phosphorylation (%) ATM: GST-peptide substrate, relative to the p53ser15 site.

Test [2] addresses T2, ATR (Homo sapiens, UniProt Q13535).
T2 construct: made in house; host or cells: 293T cells, transient transfection with pBJF-FRPwt, anti-FLAG M2 immunoprecipitate
Put plainly: In vitro kinase assay, ATR with GST-peptide / GST-fusion substrates. As to conditions: for Relative Phosphorylation (%) ATR: GST-peptide substrate, relative to the p53ser15 site; for phosphorylation by ATR in vitro (in words): larger GST-fusion fragments or full-length proteins as substrates. On the procedure: (§1) FIGS. 1A, 1B, and 1C. Phosphorylation of GST-p53 mutant peptides (amino acids 9-21) by ATM, ATR, and DNA-PK in vitro. In vitro kinase assays with immunoprecipitated, transfected flag-tagged ATM (A) or ATR (B) or purified DNA-PK (C) were performed with GST-p53 peptides containing the amino acid substitutions indicated. The amount of 32P-labeled GST-peptides was quantitated with a PhosphorImager and was normalized for each of the kinases to the level of phosphorylation of wild-type GST-p53.
(§2) FIGS. 2A, 2B, and 2C. Phosphorylation of candidate targets of by ATM, ATR and DNA-PK in vitro. GST-peptides containing the putative target sequences were used as substrates for the kinase assay.
Transfection and Kinase Activity Assays. 293T cells were transiently transfected with 10 μg of either pcDNA-FLAG-ATMwt, pcDNA-FLAG-ATMkd, pBJF-FRPwt or pBJF-FRPkd (Cliby et al., EMBO J., 17:159, 1998) using calcium phosphate and harvested two days later. Cells were lysed through sonication in TGN buffer [50 mM Tris (pH 7.5), 50 mM glycerophosphate, 150 mM NaCl, 10% glycerol, 1% Tween 20, 1 mM NaF, 1 mM NaVO4, 1 mM PMSF, […] Pepstatin A, 5 μg/ml leupeptin, 10 μg/ml Aprotinin and 1 mM DTT] as described (Brunn et al., Science, 277:99-101,1997). After centrifugation at 13,000 ×g, 2 mg of extract were incubated with mouse IgG and protein A/G sepharose beads (Calbiochem). FLAG-tagged proteins were then immunoprecipitated with anti-FLAG M2 monoclonal antibody (Eastman Kodak Company) and protein A/G sepharose beads. Immunoprecipitates were washed twice with TGN buffer, once with 100 mM Tris (pH 7.5) plus 0.5 M LiCl, and twice with kinase buffer [10 mM Hepes (pH 7.5), 50 mM glycerophosphate, 50 mM NaCl, 10 mM MgCl2, 10 mM MnCl2, 5 μM ATP, and 1 mM DTT]. Kinase reactions were initiated by resuspending washed beads in 30 μl of kinase buffer containing 10 μCi [γ-^32P]ATP and 1 μg GSTp531-101 and incubated for 30 minutes at 30° C. Proteins were electrophoretically separated by SDS-polyacrylamide gel electrophoresis, transferred to nitrocellulose, and analyzed on a PhosphorImager. FLAG-tagged proteins and GSTp531-101 were subjected to immunoblotting with either anti-FLAG M2 antibody or monoclonal antibodies directed towards the NH2-terminus of p53 (Ab-2 and Ab-6, Calbiochem) as described (Siliciano et al., Genes Dev., 11:3471, 1997).
Phosphorylation of Ser^15 of p53 by ATM and ATR/FRP1 in vitro. […] Proteins from each reaction were separated by SDS polyacrylamide gel electrophoresis (7% gel), transferred to nitrocellulose, and analyzed either on a PhosphorImager or by immunoblotting. Amounts of FLAG-tagged ATM or ATR in each kinase reaction were measured by immunoblotting with anti-FLAG M2 (top panel) and amount of [γ^32P]phosphate incorporated into ATM or ATR during the reaction (lower panel). […] An upper immunoreactive band represents phosphorylated GSTp53 fusion protein. The same exposures were used for ATM, ATR/FRP1 and corresponding substrate proteins.
(§3) Plasmids and GST-fusion protein production. For GST fusion peptide expression vectors, complementary oligonucleotides encoding desired peptides (14 amino acids) were cloned into the BamHI/SmaI site of pGEX-2T (Pharmacia). The constructs were confirmed by restriction enzyme digests and DNA sequencing. To construct the larger GST-p95 (327-391) protein fragment, p95 DNA encoding amino acids 327-391 was amplified by PCR with Pfu polymerase using the following primers: 5′ sense,
In vitro kinase assays and immunoprecipitation. […] Cleared supernatants were immunoprecipitated with anti-Flag M2 antibody and protein A/G agarose, the beads were washed with TGN buffer followed by TGN buffer plus 0.5 M LiCl, and two washes with kinase buffer [20 mM HEPES (pH 7.5), 50 mM NaCl, 10 mM MgCl2, 1 mM dithiothreitol (DTT) and 10 mM MnCl2]. […] ATP and […] of GST-fusion substrate (GST-p53:1-101), in varying concentration of Mn^2+. […]

In test [3] the target is DNA-PK (Homo sapiens, UniProt P78527). Put plainly: In vitro kinase assay, purified DNA-PK with GST-peptide / GST-fusion substrates. As to conditions: for Relative Phosphorylation (%) DNA-PK: GST-peptide substrate, relative to the p53ser15 site. On the procedure: as §1, §2, §3
In vitro kinase assays and immunoprecipitation. […] Cleared supernatants were immunoprecipitated with anti-Flag M2 antibody and protein A/G agarose, the beads were washed with TGN buffer followed by TGN buffer plus 0.5 M LiCl, and two washes with kinase buffer [20 mM HEPES (pH 7.5), 50 mM NaCl, 10 mM MgCl2, 1 mM dithiothreitol (DTT) and 10 mM MnCl2]. […] ATP and […] of GST-fusion substrate (GST-p53:1-101), in varying concentration of Mn^2+. The kinase reaction was conducted at 30° C. for 20 min and stopped by the addition of SDS-PAGE loading buffer. Proteins were separated on SDS-polyacrylamide gel electrophoresis (SDS-PAGE) and transferred to nitrocellulose. Radiolabeled proteins were visualized and quantitated on a Phosphorimager (Molecular Dynamics). Use of equivalent amounts of flag-tagged ATM or ATR in the different lanes was confirmed by immunoblotting with anti-flag antibody. In some reactions, either supercoiled DNA (pBluescript II KS, Stratagene) or linearized DNA (pBluescript II KS cut with EcoR1) was added ([…]). For endogenous ATM kinase reactions, endogenous ATM was immunoprecipitated from GM0536 lymphhoblasts with ATM monoclonal antibody (D16.11) in M buffer (PBS, 10% glycerol, 0.2% Tween 20, 0.3% NP-40, 1 mM NaF, 1 mM Na3VO4, 1 mM PMSF, 1x protease inhibitor mixture]. After washing with M buffer and kinase buffer, in vitro kinase reactions were carried out according to procedures described above. The DNA-PK in vitro kinase reaction was performed as previously described (Gottlieb and Jackson, 1993), using 20 ng each of DNA-PKcs or DNA-PK (20 ng DNA-PKcs premixed with 20 ng Ku 70/80).

Where [4] appears, read: GST-conjugated 14 amino acid peptides.

Where no end group is shown, it is not given here. A value given as a limit tells only on which side of the number the result lay.

T2 sequence (Q13535 whole entry): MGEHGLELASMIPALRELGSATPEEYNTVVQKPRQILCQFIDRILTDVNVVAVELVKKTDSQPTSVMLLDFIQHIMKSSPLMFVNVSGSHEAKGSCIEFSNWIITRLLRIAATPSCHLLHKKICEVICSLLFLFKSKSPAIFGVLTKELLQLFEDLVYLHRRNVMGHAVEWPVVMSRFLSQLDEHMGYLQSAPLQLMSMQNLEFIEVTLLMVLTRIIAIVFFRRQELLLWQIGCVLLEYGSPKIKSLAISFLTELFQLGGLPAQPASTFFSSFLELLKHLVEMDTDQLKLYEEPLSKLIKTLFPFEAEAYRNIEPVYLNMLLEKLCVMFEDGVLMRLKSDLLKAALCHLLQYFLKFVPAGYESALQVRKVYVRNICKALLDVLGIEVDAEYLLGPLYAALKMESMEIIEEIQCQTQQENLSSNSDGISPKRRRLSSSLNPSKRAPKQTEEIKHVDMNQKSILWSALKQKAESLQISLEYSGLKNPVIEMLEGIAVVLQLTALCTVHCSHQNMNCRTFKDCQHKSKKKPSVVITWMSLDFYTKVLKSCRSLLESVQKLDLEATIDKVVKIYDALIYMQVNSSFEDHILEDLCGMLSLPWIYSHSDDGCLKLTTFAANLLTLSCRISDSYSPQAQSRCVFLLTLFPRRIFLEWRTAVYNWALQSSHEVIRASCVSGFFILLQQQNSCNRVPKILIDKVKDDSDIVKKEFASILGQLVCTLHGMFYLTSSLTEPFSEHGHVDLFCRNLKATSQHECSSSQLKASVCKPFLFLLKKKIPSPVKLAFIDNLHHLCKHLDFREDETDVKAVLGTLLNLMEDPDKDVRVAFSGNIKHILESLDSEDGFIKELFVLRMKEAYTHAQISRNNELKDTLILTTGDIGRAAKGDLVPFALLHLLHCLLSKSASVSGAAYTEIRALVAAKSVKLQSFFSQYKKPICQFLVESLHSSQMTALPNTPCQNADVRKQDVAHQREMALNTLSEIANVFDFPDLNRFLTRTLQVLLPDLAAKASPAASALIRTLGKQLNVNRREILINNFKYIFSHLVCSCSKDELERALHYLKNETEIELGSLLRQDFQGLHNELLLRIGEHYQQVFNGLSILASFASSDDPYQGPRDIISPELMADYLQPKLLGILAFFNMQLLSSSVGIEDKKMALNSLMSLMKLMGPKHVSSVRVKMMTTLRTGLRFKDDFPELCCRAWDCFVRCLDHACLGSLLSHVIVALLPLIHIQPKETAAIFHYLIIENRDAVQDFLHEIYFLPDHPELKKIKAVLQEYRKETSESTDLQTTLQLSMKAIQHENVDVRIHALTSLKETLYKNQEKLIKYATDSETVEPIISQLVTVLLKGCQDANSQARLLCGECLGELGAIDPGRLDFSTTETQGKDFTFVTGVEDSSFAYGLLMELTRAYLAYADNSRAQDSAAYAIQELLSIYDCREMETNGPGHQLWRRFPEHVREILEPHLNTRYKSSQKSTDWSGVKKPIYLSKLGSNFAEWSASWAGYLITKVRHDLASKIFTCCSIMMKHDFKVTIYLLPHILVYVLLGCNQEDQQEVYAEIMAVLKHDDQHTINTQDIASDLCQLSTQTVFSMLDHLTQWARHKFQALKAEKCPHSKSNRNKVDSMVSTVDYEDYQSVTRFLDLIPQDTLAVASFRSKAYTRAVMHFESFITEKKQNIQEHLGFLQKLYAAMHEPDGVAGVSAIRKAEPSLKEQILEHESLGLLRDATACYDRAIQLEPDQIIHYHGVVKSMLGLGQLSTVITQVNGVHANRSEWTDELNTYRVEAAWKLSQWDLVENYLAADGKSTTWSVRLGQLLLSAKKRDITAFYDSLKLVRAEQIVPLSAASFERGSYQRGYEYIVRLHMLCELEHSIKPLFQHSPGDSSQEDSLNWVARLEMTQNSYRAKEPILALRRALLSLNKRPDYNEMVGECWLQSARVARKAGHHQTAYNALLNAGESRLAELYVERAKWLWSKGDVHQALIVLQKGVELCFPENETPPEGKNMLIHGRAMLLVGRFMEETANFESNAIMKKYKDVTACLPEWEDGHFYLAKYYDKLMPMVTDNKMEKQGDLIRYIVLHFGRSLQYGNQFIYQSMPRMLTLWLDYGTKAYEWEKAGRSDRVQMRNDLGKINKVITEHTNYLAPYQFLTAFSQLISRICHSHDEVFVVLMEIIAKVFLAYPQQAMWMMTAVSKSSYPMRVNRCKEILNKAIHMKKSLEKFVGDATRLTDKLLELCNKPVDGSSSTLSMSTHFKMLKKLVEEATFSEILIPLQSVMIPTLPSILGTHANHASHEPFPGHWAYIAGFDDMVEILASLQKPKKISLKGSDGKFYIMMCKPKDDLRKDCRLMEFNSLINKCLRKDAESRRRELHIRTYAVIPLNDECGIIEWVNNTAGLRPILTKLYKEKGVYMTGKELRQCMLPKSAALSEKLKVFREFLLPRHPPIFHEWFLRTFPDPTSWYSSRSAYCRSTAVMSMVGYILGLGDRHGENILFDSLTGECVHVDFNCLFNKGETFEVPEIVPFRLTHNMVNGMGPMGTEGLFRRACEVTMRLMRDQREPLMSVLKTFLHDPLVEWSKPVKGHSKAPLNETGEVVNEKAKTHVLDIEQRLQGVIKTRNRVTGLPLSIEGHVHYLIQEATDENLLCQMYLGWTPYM

Consider “wt p53: recombinant glutathione S-transferase-conjugated p53 protein containing the first 101 amino acids of p53”, for which the “phosphorylation by ATM in vitro (in words)” value (shortened to “phosphorylation by ATM”) in test [1] is recorded as “phosphorylated”. Further, the “ATR/FRP-1 activity towards substrate, less than ATM” value in test [2] (identical experimental conditions) is reported as “at least 20 fold”.
With “MRE11 (SQ5): GST-peptide SSSKIMSQSQVSKG (SEQ ID NO:15), S648 (also: GST fusion)”, the “Relative Phosphorylation (%) ATM” value in test [1] is below 1%.
As to “RPA34kD (SQ3): GST-peptide TGNVEISQVTIVGI (SEQ ID NO:42), S72 (not fully specified (N-terminus); also: GST fusion; listed as Homo sapiens)”, the “Relative Phosphorylation (%) ATM” value in test [1] was below 1%. For the same molecule, the “Relative Phosphorylation (%) ATR” value in test [2] is 8%. For the same molecule, the “Relative Phosphorylation (%) DNA-PK” value in test [3] is reported as below 1%.
For “DNA LIG-IV: GST-peptide DLKLGVSQQTIFSV (SEQ ID NO:39), S132 (also: GST fusion)”, the “phosphorylation of GST-peptide substrate by ATM (in words)” value in test [1] (setting [4]) is given as “not by ATM”. Further, in test [1], the “Relative Phosphorylation (%) ATM” value turned out to be 5%. In addition, the “Relative Phosphorylation (%) ATR” value in test [2] was 36%. For the same molecule, the “phosphorylation of GST-peptide substrate by DNA-PK (in words)” value in test [3] (setting [4]) was “phosphorylated by DNA-PKcs”. In test [3], the “Relative Phosphorylation (%) DNA-PK” value turned out to be 48%.
Regarding “BRCA1 (SQ2): GST-peptide DCSGLSSQSDILTT (SEQ ID NO:33), S1387 (also: GST fusion)”, the “Relative Phosphorylation (%) ATM” value in test [1] stood at 42%. Further, the “Relative Phosphorylation (%) ATR” value in test [2] is 35%. Also, in test [3], the “Relative Phosphorylation (%) DNA-PK” value is 36%.
For “CHK1 (SQ1): GST-peptide NVKYSSSQPEPRTG (SEQ ID NO:16), S317 (also: GST fusion)”, in test [1], the “Relative Phosphorylation (%) ATM” value is listed as 14%. The “Relative Phosphorylation (%) ATR” value in test [2] is given as 58%. Moreover, the “Relative Phosphorylation (%) DNA-PK” value in test [3] was determined as 2%.
For “CtIP: GST-peptide DPGADLSQYKMDVT (SEQ ID NO:44), S664 (also: GST fusion)” the same measures were 12%, 12% and 2%.
With “PTS (123F2): GST-peptide WETPDLSQAEIEQK (SEQ ID NO:37), S61 (not fully specified (N-terminus); also: GST fusion)”, the “Relative Phosphorylation (%) ATM” value in test [1] came to 111%. The “Relative Phosphorylation (%) ATR” value in test [2] is 40%. Further, the “Relative Phosphorylation (%) DNA-PK” value in test [3] came out at 33%.
As to “β3A Adaptin: GST-peptide ELKPVLSQG (SEQ ID NO:43), S1092 (not fully specified (N-terminus); also: GST fusion; listed as Homo sapiens)”, the “Relative Phosphorylation (%) ATM” value in test [1] was found to be 6%. Besides, in test [2], the “Relative Phosphorylation (%) ATR” value was 22%. For the same molecule, the “Relative Phosphorylation (%) DNA-PK” value in test [3] is 44%.
For “p95: GST-peptide TPGPSLSQGVSVDE (SEQ ID NO:10), S343 (not fully specified (N-terminus); also: GST fusion; listed as Homo sapiens)” the same measures were 19%, 31% and 45%.
As to “CUT1: GST-peptide GASPVLSQGVDPRS (SEQ ID NO:36), S1615 (also: GST fusion)”, the “Relative Phosphorylation (%) ATM” value in test [1] is 9%. In addition, the “Relative Phosphorylation (%) ATR” value in test [2] is listed as 20%. Further, the “Relative Phosphorylation (%) DNA-PK” value in test [3] was found to be 5%.
Consider “full-length WRN protein: purified recombinant full-length WRN protein”, for which the “phosphorylation by ATM” value in test [1] was “not phosphorylated”. The “phosphorylation by ATR in vitro (in words)” value in test [2] is given as “not phosphorylated”.
Take “MRE11 (SQ4): GST-peptide SASRGGSQRGRAFK (SEQ ID NO:14), S590 (also: GST fusion)”: the “Relative Phosphorylation (%) ATM” value in test [1] is below 1%.
Consider “GST: glutathione S-transferase alone, control substrate [reference compound]”, for which, in test [1], the “phosphorylation by ATM” value is “did not phosphorylate”.

B1: GST-p95 (327-391): larger GST-p95 protein fragment, p95 amino acids 327-391, containing serine 343 (protein)
chain: GHPSTGLKTTTPGPSLSQGVSVDEKLMPSAPVNTTTYVADTESEQADTWDLSERPKEIKVSKMEQ
modifications: also: GST fusion
Turning to B1, the “phosphorylation by ATM” value in test [1] is recorded as “excellent in vitro substrate”.

B2: GST-WRN (1099-1198): GST-linked WRN fragment, amino acids 1099-1198 (protein)
chain: STEKKSNLEKLYSYKPCDKISSGSNISKKSIMVQSPEKAYSSSQPVISAQEQETQIVLYGKLVEARQKHANKMDVPPAILATNKILVDMAKMRPTTVENV
modifications: left off: a dimerising Fc or GST
Regarding B2, the “phosphorylation by ATM” value in test [1] was “not phosphorylated”. In test [2], the “phosphorylation by ATR in vitro (in words)” value is given as “not phosphorylated”.

B3: PhasI/4E-BP1: full-length 4E-BP1 protein, translation regulator in insulin signaling (protein)
chain: SAGSSCSQTPSRAIPTRRVALGDGVQLPPGDYSTTPGGTLFSTTPGGTRIIYDRKFLMECRNSPVAKTPPKDLPTIPGVTSPTSDEPPMQASQSHLHSSPEDKRAGGEESQFEMDI
Turning to B3, the “phosphorylation by ATM” value in test [1] is “good substrate”; in test [1] (listed as full-length 4E-BP 1) it was “can phosphorylate”.

The record behind these values is US6348311B1, “ATM kinase modulation for screening and therapies” (St. Jude Childre's Research Hospital, priority 1999, dated 2002).
